Square brackets hold non-standard residues; d marks the D form. Phe(4-I) = N[C@@H](Cc1ccc(I)cc1)C(=O)O
Legend:
[1] = cited from earlier work
[2] = target: HIF (hypoxia inducible factor) in the YFP-reporter T-REx-293 (HEK) cell line; experiment: cell-based or functional assay
[3] = target: T1, human HIF-2α PAS-B (240-350), recombinant, His-tagged (human, UniProt Q99814 240-350, labelled with Monolith NT-647 dye for MST); experiment: MST, HIF-2α PAS-B against HIF-1α PAS-B
T1 construct: range 240-350; Expressed in E. coli BL21(DE3)-Rosetta from pET28a; also called PAS-B domain of HIF-2α; not shown: His tag from pET28a vector (BamHI/SacI cloning)
T1 sequence (Q99814 240-350): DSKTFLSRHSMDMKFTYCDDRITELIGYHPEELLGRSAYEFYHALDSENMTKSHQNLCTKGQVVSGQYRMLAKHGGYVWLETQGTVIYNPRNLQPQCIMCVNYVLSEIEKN
Procedure: (§1) HIF-α proteins were labelled with Monolith NT-647 labelling dye (Nanotemper Technologies GmbH) according to the manufacturer's instructions. MST experiments were performed on a Monolith NT.115 system (Nanotemper Technologies GmbH), in assay buffer containing 50 nM labelled protein, 10% DMSO and 0.05% TWEEN-20. MST measurements were performed using 50% LED and 50% MST power.

[4] = target: T2, human HIF-1α PAS-B (238-349), recombinant, His-tagged (human, UniProt Q16665 238-349, labelled with Monolith NT-647 dye for MST); experiment: MST, NT-647-labelled recombinant HIF-1α PAS-B
T2 construct: range 238-349; Expressed in E. coli BL21(DE3)-Rosetta from pET28a; also called HIF-1α PAS-B domain; PAS-B domain of HIF-1α; not shown: His tag from pET28a vector (BamHI/SacI cloning)
T2 sequence (Q16665 238-349): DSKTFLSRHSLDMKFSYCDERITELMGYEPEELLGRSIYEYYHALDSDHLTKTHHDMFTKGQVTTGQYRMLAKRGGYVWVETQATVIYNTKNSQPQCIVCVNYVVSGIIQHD
Procedure: as §1

[5] = target: T1, human HIF-2α PAS-B (240-350), …; experiment: MST, NT-647-labelled recombinant HIF-2α PAS-B
Procedure: as §1

[6] = target: T2, human HIF-1α PAS-B (238-349), …; experiment: MST, HIF-1α PAS-B; bar chart of Kd (µM) for residues at position 6 of CRLIIF
[7] = target: T2, human HIF-1α PAS-B (238-349), …; experiment: MST, peptide titrated against labelled HIF-1α PAS-B [top panel]
[8] = target: T2, human HIF-1α PAS-B (238-349), …; experiment: MST, NT-647-labelled recombinant 1α PAS-B
Procedure: as §1

[9] = target: T2, human HIF-1α PAS-B (238-349), …; experiment: MST, NT-647-labelled recombinant PAS-B domain
Procedure: as §1

[10] = target: T1, human HIF-2α PAS-B (240-350), …; experiment: MST, NT-647-labelled recombinant PAS-B domain
Procedure: as §1

[11] = target: T1, human HIF-2α PAS-B (240-350), …; experiment: MST, peptide titrated against labelled HIF-2α PAS-B [top panel]
[12] = target: T2, human HIF-1α PAS-B (238-349), …; experiment: MST, peptide titrated against labelled HIF-1α PAS-B [middle panel]
[13] = target: T1, human HIF-2α PAS-B (240-350), …; experiment: MST, peptide titrated against labelled HIF-2α PAS-B [middle panel]
[14] = target: T2, human HIF-1α PAS-B (238-349), …; experiment: MST, ratio of Kd on HIF-2α PAS-B to Kd on HIF-1α PAS-B
[15] = target: T2, human HIF-1α PAS-B (238-349), …; experiment: MST, peptide titrated against labelled HIF-1α PAS-B [bottom panel]
[16] = target: T1, human HIF-2α PAS-B (240-350), …; experiment: MST, peptide titrated against labelled HIF-2α PAS-B [bottom panel]

In the case of “CLLFVY: previously reported selective inhibitor of HIF-1 dimerization, cyclic peptide Cys leu leu phe val tyr”, the “solubility of previously reported HIF-1 inhibitor” value [1] is listed as “comparatively insoluble”.

B1: cyclo-cys arg leu ile ile (4-I)phe (peptide)
peptide: cyclo(CRLII[Phe(4-I)])
SMILES: CC[C@H](C)[C@@H]1NC(=O)[C@H](CC(C)C)NC(=O)[C@H](CCCNC(=N)N)NC(=O)[C@H](CS)NC(=O)[C@H](Cc2ccc(I)cc2)NC(=O)[C@H]([C@@H](C)CC)NC1=O
notes: also called CRLIIF(4I); Cyclo-CRLIIF(4-I)
With B1 the IC50 in the YFP reporter assay (HRE-driven YFP in T-REx-293 cells, hypoxia) [2] was 35 µM, the “fold loss in Kd compared to the 1α isoform” value [3] was 2.2 fold and the Kd [4] was 0.85 µM. The “fold improvement in affinity relative to the parent compound CRLIIF” value [4] was 4.5 fold and the Kd [5] was 1.9 µM.

B2: cyclo-cys arg leu ile ile tyr (peptide)
peptide: CRLIIY
modifications: head-to-tail cyclic (cyclo-)
notes: also called Cyclo-CRLIIY; cyclic peptide #29
B2: binds [6].

CKLIIF (head-to-tail cyclic (cyclo-), also called CKLIIF; cyclic peptide #1) [cyclo-cys lys leu ile ile phe] showed a Kd [7] of 2.6 µM, a Kd [8] of 2.5 µM and a Kd [9] of ~2 µM. For the same molecule, the Kd [10] was ~2 µM and the Kd [11] was 2.2 µM.

For CRLLIF (head-to-tail cyclic (cyclo-), also called CRLLIF; cyclic peptide #2) [cyclo-cys arg leu leu ile phe], the Kd [12] was 14.5 µM, the Kd [8] was 14 µM and the Kd [13] was 10.2 µM.

For CRVIIF (head-to-tail cyclic (cyclo-), also called CRVIIF; cyclic peptide #3) [cyclo-cys arg val ile ile phe], the “fold selectivity for 1α over 2α” value [14] was ~2 fold, the Kd [15] was 65.5 µM and the Kd [9] was 61 µM. The Kd [10] was 118 µM and the Kd [16] was 123 µM.

From US20240270793A1, “COMPOSITIONS” (UNIVERSITY OF SOUTHAMPTON, priority 2020, published 2024)
